According to US20250066745A1, “MUTANTS AND USE THEREOF” (BGI SHENZHEN, priority 2021, published 2025):
Substitutions are numbered along the chain they refer to. Names may count otherwise.

B1: K66R E102K E110G D123N V138D: Gaussia luciferase mutant (protein)
chain: MGVKVLFALICIAVAEAKPTENNEDFNIVAVASNFATTDLDADRGKLPGKKLPLEVLKEMEANARRAGCTRGCLICLSHIKCTPKMKKFIPGRCHTYEGDKKSAQGGIGGAIVDIPEIPGFKNLEPMEQFIAQVDLCDDCTTGCLKGLANVQCSDLLKKWLPQRCATFASKIQGQVDKIKGAGGD
modifications: SIGNAL (1)..(17)
notes: Gaussia luciferase mutant
B2: K66R P84A E102A S103I A104G E110A: Gaussia luciferase mutant (protein)
chain: B1 chain with P84A, K102A, S103I, A104G, G110A, N123D, D138V
modifications: SIGNAL (1)..(17)
notes: Gaussia luciferase mutant
B3: K66R P84A E102S S103I A104G E110A L124M V138E: Gaussia luciferase mutant (protein)
chain: B1 chain with P84A, K102S, S103I, A104G, G110A, N123D, L124M, D138E
modifications: SIGNAL (1)..(17)
notes: Gaussia luciferase mutant
B4: K66R P84L E102D S103T E110A V138E: Gaussia luciferase mutant (protein)
chain: B1 chain with P84L, K102D, S103T, G110A, N123D, D138E
modifications: SIGNAL (1)..(17)
notes: Gaussia luciferase mutant
B5: N27D V29E A30G V31I A32V S33K A36I T37D L40T: Gaussia luciferase mutant (protein)
chain: MGVKVLFALICIAVAEAKPTENNEDFDIEGIVKNFIDTDTDADRGKLPGKKLPLEVLKEMEANARKAGCTRGCLICLSHIKCTPKMKKFIPGRCHTYEGDKESAQGGIGEAIVDIPEIPGFKDLEPMEQFIAQVDLCVDCTTGCLKGLANVQCSDLLKKWLPQRCATFASKIQGQVDKIKGAGGD
modifications: SIGNAL (1)..(17)
notes: Gaussia luciferase mutant
B6: N27D V29S V31L A32V S33G A36N T37D L40R: Gaussia luciferase mutant (protein)
chain: B5 chain with E29S, G30A, I31L, K33G, I36N, T40R
modifications: SIGNAL (1)..(17)
notes: Gaussia luciferase mutant
B7: A42G Q152K S170S G174N Q175E K178S A182Y G183A: Gaussia luciferase mutant (protein)
chain: MGVKVLFALICIAVAEAKPTENNEDFNIVAVASNFATTDLDGDRGKLPGKKLPLEVLKEMEANARKAGCTRGCLICLSHIKCTPKMKKFIPGRCHTYEGDKESAQGGIGEAIVDIPEIPGFKDLEPMEQFIAQVDLCVDCTTGCLKGLANVKCSDLLKKWLPQRCATFASKIQNEVDSIKGYAGD
modifications: SIGNAL (1)..(17)
notes: Gaussia luciferase mutant
B8: P84A E102A S103T E110A V138D: Gaussia luciferase mutant (protein)
chain: B1 chain with R66K, P84A, K102A, S103T, G110A, N123D
modifications: SIGNAL (1)..(17)
notes: Gaussia luciferase mutant
B9: P84A E102S S103T A104G E110A L124M V138E: Gaussia luciferase mutant (protein)
chain: B1 chain with R66K, P84A, K102S, S103T, A104G, G110A, N123D, L124M, D138E
modifications: SIGNAL (1)..(17)
notes: Gaussia luciferase mutant
B10: Q152H Q163D T167S S170N A182L G183A: Gaussia luciferase mutant (protein)
chain: B7 chain with G42A, K152H, Q163D, T167S, S170N, N174G, E175Q, S178K, Y182L
modifications: SIGNAL (1)..(17)
notes: Gaussia luciferase mutant
B11: Q152H Q163S T167G S170V G174N G183A: Gaussia luciferase mutant (protein)
chain: B7 chain with G42A, K152H, Q163S, T167G, S170V, E175Q, S178K, Y182A
modifications: SIGNAL (1)..(17)
notes: Gaussia luciferase mutant
B12: Q152H Q163T T167S S170D G174K K178N A182Y G183N: Gaussia luciferase mutant (protein)
chain: B7 chain with G42A, K152H, Q163T, T167S, S170D, N174K, E175Q, S178N, A183N
modifications: SIGNAL (1)..(17)
notes: Gaussia luciferase mutant
B13: Q152K Q163D S170N G174K Q175E K178T A182L G183A: Gaussia luciferase mutant (protein)
chain: B7 chain with G42A, Q163D, S170N, N174K, S178T, Y182L
modifications: SIGNAL (1)..(17)
notes: Gaussia luciferase mutant
B14: Q152R Q163S T167G S170D G174K A182Y G183A: Gaussia luciferase mutant (protein)
chain: B7 chain with G42A, K152R, Q163S, T167G, S170D, N174K, E175Q, S178K
modifications: SIGNAL (1)..(17)
notes: Gaussia luciferase mutant
B15: Q152R Q163S T167G S170V G174K Q175E K178S A182Y G183A: Gaussia luciferase mutant (protein)
chain: B7 chain with G42A, K152R, Q163S, T167G, S170V, N174K
modifications: SIGNAL (1)..(17)
notes: Gaussia luciferase mutant
B16: Q152R Q163T T167S S170N G174K K178S A182Y G183A: Gaussia luciferase mutant (protein)
chain: B7 chain with G42A, K152R, Q163T, T167S, S170N, N174K, E175Q
modifications: SIGNAL (1)..(17)
notes: Gaussia luciferase mutant
B17: Q152R S154F Q163D S170T G174N K178T A182Y: Gaussia luciferase mutant (protein)
chain: B7 chain with G42A, K152R, S154F, Q163D, S170T, E175Q, S178T, A183G
modifications: SIGNAL (1)..(17)
notes: Gaussia luciferase mutant
B18: Q152R T167G S170N K178S A182L G183N: Gaussia luciferase mutant (protein)
chain: B7 chain with G42A, K152R, T167G, S170N, N174G, E175Q, Y182L, A183N
modifications: SIGNAL (1)..(17)
notes: Gaussia luciferase mutant
B19: Q163S T167S S170T G174N K178T: Gaussia luciferase mutant (protein)
chain: B7 chain with G42A, K152Q, Q163S, T167S, S170T, E175Q, S178T, Y182A, A183G
modifications: SIGNAL (1)..(17)
notes: Gaussia luciferase mutant
B20: T167S S170D G174N Q175E K178N A182L: Gaussia luciferase mutant (protein)
chain: B7 chain with G42A, K152Q, T167S, S170D, S178N, Y182L, A183G
modifications: SIGNAL (1)..(17)
notes: Gaussia luciferase mutant

assay: Luminescence activity assay of purified Gaussia luciferase mutants on coelenterazine; format: biochemical; set-up: key to Activity of mutant relative to wild-type Gaussia luciferase without the signal peptide: ratio of mutant luminescence intensity to wild-type Gaussia luciferase; conditions: Substrate CTZ (Table 16)
Experimental: (§1) In this Example, the protein concentration was determined with a BCA quantitative kit (Thermo Scientific™ Pierce™ BCA Protein Assay Kit) accurately. The purified luciferase obtained in Example 5 was diluted with diluent (50 mM Tris-HCl, pH 8.0, 100 mM NaCl, 0.1% (v/v) Tween-20) to 1 μg/mL. The diluted luciferase, taken for 10 μL, was moved into a black 96-well plate, then added with 90 μL of the substrates coelenterazine, fluoro-coelenterazine or coelenterazine derivative ZS2 (purchased from Biolab) which was diluted into 100 μM with the same diluent, and the luminescence intensity of the plate was read with a self-luminescence module of a microplate reader. The mutation site of the mutant, the measured luminescence intensity, the ratio of luminescence intensities of the advantageous mutants to the wild-type Gaussia luciferase without the signal peptide having the sequence shown in SEQ ID NO: 3 are shown in Table 15. The results of catalytic activity assay of the advantageous mutants relative to the wild-type Gaussia luciferase without the signal peptide having the sequence shown in SEQ ID NO: 3 on substrate coelenterazine are shown in FIG. 6. […] The results of catalytic activity assay of the advantageous mutants relative to the wild-type Gaussia luciferase without the signal peptide having the sequence shown in SEQ ID NO: 3 on substrate fluoro-coelenterazine are shown in FIG. 7.
(§2) The new mutant library constructed in Example 7 was screened and tested for substrate specificity. Expression and purification schemes were the same as that in Example 5, and the activity assay scheme was the same as that in Example 6. The respective catalytic activities of combinatorial mutants on coelenterazine, fluoro-coelenterazine or coelenterazine derivative ZS2, and coelenterazine derivative ZS26 (purchased from BIOLAB) were assayed, and comparisons among the substrate specificities of the combinatorial mutants were based on the ratios of catalytic activities on two corresponding substrates.

Molecule	Activity of mutant relative to wild-type Gaussia luciferase without the signal peptide
B1	1.000
B2	0.122
B3	1.302
B4	0.626
B5	0.779
B6	0.981
B7	0.736
B8	0.174
B9	0.375
B10	1.197
B11	0.006
B12	0.079
B13	1.079
B14	1.050
B15	0.992
B16	1.030
B17	0.020
B18	0.807
B19	0.706
B20	0.850

assay: Luminescence activity assay of purified Gaussia luciferase mutants on coelenterazine derivative ZS2; format: biochemical; set-up: key to Activity of mutant relative to wild-type Gaussia luciferase without the signal peptide: ratio of mutant luminescence intensity to wild-type Gaussia luciferase; conditions: Substrate ZS2 (Table 16)
Experimental: as §1, §2

Molecule	Activity of mutant relative to wild-type Gaussia luciferase without the signal peptide
B1	1.611
B2	1.209
B3	0.587
B4	3.079
B5	1.379
B6	0.146
B7	1.751
B8	4.252
B9	4.457
B10	0.698
B11	0.064
B12	0.089
B13	1.183
B14	1.402
B15	1.011
B16	0.413
B17	0.003
B18	0.737
B19	2.603
B20	0.890
